Assay results taken from PMC6877594, “Atomic structure of the human herpesvirus 6B capsid and capsid-associated tegument complexes” (Nature Communications, 2019).
“And” between values parts separate entries of the source, which are not always exact repeats. Equal entries are not always repeated.

B1: major capsid protein (MCP) of human herpesvirus 6B (natural protein)
chain: MENWQATEILPKIEAPLNIFNDIKTYTAEQLFDNLRIYFGDDPSRYNISFEALLGIYCNKIEWINFFTTPIAVAANVIRFNDVSRMTLGKVLFFIQLPRVATGNDVTAPKETTIMVAKHSEKHPINISFDLSAACLEHLENTFKNTVIDQILNINALHTVLRSLKNSADSLERGLIHAFMQTLLRKSPPQFIVLTMNENKVHNKQALSRVQRSNMFQSLKNRLLTSLFFLNRNNNSSYIYRILNDMMESVTESILNDTNNYTSKENIPLDGVLLGPIGSIQKLTNILSQYISTQVVSAPISYGHFIMGKENAVTAIAYRAIMADFTQFTVNAGTEQQDTNNKSEIFDKSRAYADLKLNTLKLGDKLVAFDHLHKVYKNTDVNDPLEQSLQLTFFFPLGIYIPTETGFSTMETRVKLNDTMENNLPTSVFFHNKDQVVQRIDFADILPSVCHPIVHDSTIVERLMKNEPLPTGHRFSQLCQLKITRENPTRILQTLYNLYESRQEVPKNTNVLKNELNVEDFYKPDNPTLPTERHPFFDLTYIQKNRATEVLCTPRIMIGNMPLPLAPISFHEARTNQMLEHAKTNSHNYDFTLKIVTESLTSGSYPELAYVIEILVHGNKHAFMILKQVISQCISYWFNMKHILLFCNSFEMIMLISNHMGDELIPGAAFAHYRNLVSLIRLVKRTISISNINEQLCGEPLVNFANALFDGRLFCPFVHTMPRNDTNAKITADDTPLTQNTVRVRNYEISDVQRMNLIDSSVVFTDNDRPSNENTILSKIFYFCVLPALSNNKACGAGVNVKELVLDLFYTEPFICPDDCFQENPISSDVLMSLIREAMGPGYTVANTSSIAKQLFKSLIYINENTKILEVEVSLDPAQRHGNSVHFQSLQHILYNGLCLISPITTLRRYYQPIPFHRFFSDPGICGTMNADIQVFLNTFPHYQRNDGGFPLPPPLALEFYNWQRTPFSVYSAFCPNSLLSIMTLAAMHSKLSPVAIAIQSKSKIHPGFAATLVRTDNFDVECLLYSSRAATSIILDDPTVTAEAKDIVTTYNFTQHLSFVDMGLGFSSTTATANLKRIKSDMGSKIQNLFSAFPIHAFTNTDINTWIRHHVGIEKPNPSEGEALNIITFGGINKNPPSILLHGQQAICEVILTPVTTNINFFKLPHNPRGRESCMMGTDPHNEEAARKALYDHTQTDSDTFAATTNPWASLPGSLGDILYNTAHREQLCYNPKTYSPNAQFFTESDILKTNKMMYKVINEYCMKSNSCLNSDSEIQYSCSEGTDSFVSRPCQFLQNALPLHCSSNQALLESRSKTGNTQISETHYCNYAIGETIPLQLIIESSI
notes: major capsid protein (MCP) of human herpesvirus 6B, strain Z29; 1345 amino acids long; domains described over a.a; 1-1345; Native protein in the virion capsid; 16 conformers (15 hexon, 1 penton) modelled in each asymmetric unit; also called penton MCP; hexon MCP

Assays:
[1] = target: the molecule itself; test: cryo-EM structure; in situ in HHV-6B (Z29) virions pelleted from SupT1 culture supernatant and resuspended in PBS; icosahedral reconstruction ~5.1 Å, sub-particle reconstructions at the fivefold, threefold and twofold axes at 3.82, 3.77 and 3.77 Å; atomic models of 59 conformers
[2] = target: B1; test: as above; conditions: partners not purified

Binder	stoichiometry N [1]	stoichiometry N [2]
tegument protein pU11 of human herpesvirus 6B (natural protein, tegument protein pU11 of human herpesvirus 6B, strain Z29; 858 a.a. long; wild-type full-length protein inside the virion, only a.a; 7-275 (pU11nt) are resolved and modelled; also called pU11nt (the resolved N-terminal one-third, a.a. 7-275); pU11nt-a-1) MDLKAQSIPFAWLDRDKVQRLTNFLSNLENLENVDLREHPYVTNSCVVREGEDVDELKTLYNTFILWLMYHYVLSKRKPDYNAIWQDITKLQNVVNEYLKSKGLNKGNFENMFTNKEKFESQFSDIHRALLRLGNSIRWGSNVPIDTPYVNLTAEDSSEIENNLQDAEKNMLWYTVYNINDPWDENGYLVTSINKLVYLGKLFVTLNQSWSKLEKVAMSQIVTTQNHLSGHLRKNENFNAVYSQRVLQTPLTGQRVESFLKIITSDYEIIKSSLESYSASKAFSVPENGPHSLMDFASLDGRMPSDLSLPSISIDTKRPSADLARLKISQPKSLDAPLKTQRRHKFPESDSVDNAGGKILIKKETLGGRDVRATTPVSSVSLMSGVEPLSSLTSTNLDLRDKSHGNYRIGPSGILDFGVKLPAEAQSNTGDVDLLQDKTSIRSPSSGITDVVNGLANLNLRQNKSDVSRPWSKNTAANADVFDPVHRLVSEQTGTPFVLNNSDVAGSEAKLTTHSTETGVSPHNVSLIKDLRDKDGFRKQKKLDLLGSWTKEKNDKAIVHSREVTGDSGDATETVTARDSPVLRKTKHANDIFAGLNKKYARDVSRGGKGNSRDLYSGGNAEKKETSGKFNVDKEMTQNEQEPLPNLMEAARNAGEEQYVQAGLGQRVNKILAEFTNLISLGEKGIQDILHNQSGTELKLPTENKLGRESEEANVERILEVSDPQNLFKNFKLQNDLDSVQSPFRLPNADLSRDLDSVSFKDALDVKLPGNGEREIDLALQKVKAGERETSDFKVGQDETLIPTQLMKVETPEEKDDVIEKMVLRIRQDGETDEETVPGPGVAESLGIAAKDKSVIAS	4	–
triplex dimer protein (Tri2) of human herpesvirus 6B (natural protein, triplex dimer protein (Tri2) of human herpesvirus 6B, strain Z29; domains clamp (a.a. 1-86), trunk (a.a. 87-181 and 276-296), embracing arm (a.a. 182-275); Native protein in the virion capsid; two conformers (Tri2A, Tri2B) of the same protein in each triplex; also called Tri2A; Tri2B) METVYCTFDHKLSLSDISTLCKLMNIVIPIPAHHHLIGSGNLGLYPIVSSNKDYVHIRNVLRTMVVTILQKVEGNQLVLRKPMTGQQYAIKNTGPFPWEKGDTLTLIPPLSTHSEEKLLKLGDWELTVPLVVPTAIAAEINIRLLCIGLIAVHREYNEMQTIIDELCSIQYRDVLIKLPDIVNDKQSMYSMKTACISLSMITAMAPDIVRTYIDRLTLEDHSMLLIKCQELLSKRTTLSTQRCGQLHATDIKDELKKIKSVLTMIDQINSLTNEKTYFVVCDVSADNRMATCIYKN	2	–
B1	5 and 6	–
smallest capsid protein (SCP) of human herpesvirus 6B, U32 gene product (natural protein, smallest capsid protein (SCP), U32 gene product of human herpesvirus 6B, strain Z29; 89 residues long; the model covers residues 23-83, residues 1-22 are disordered; Native protein in the virion capsid; 16 conformers modelled in each asymmetric unit; also called penton SCP; hexon SCP) MTTIRGDDLSNQITQISGSSSKKEEEKKKQQMLTGVLGLQPTMANHPVLGVFLPKYAKQNGGNVDKTAFRLDLIRMLALHRLNTKTGSD	–	1
